Substrate: O=C(O)/C=C/c1ccc(O)c(O)c1
Experiment: purified protein
Conditions: co-substrate SAM
[1] = optimal conditions (30°C, pH 8.0)
[2] = optimal conditions (35°C, pH 8.0)

Protein | kcat (optimal conditions) [s⁻¹] | kcat/Km (optimal conditions) [M⁻¹ s⁻¹] | other results
AtCOMT (Arabidopsis thaliana) (protein) MGSTAETQLTPVQVTDDEAALFAMQLASASVLPMALKSALELDLLEIMAKNGSPMSPTEIASKLPTKNPEAPVMLDRILRLLTSYSVLTCSNRKLSGDGVERIYGLGPVCKYLTKNEDGVSIAALCLMNQDKVLMESWYHLKDAILDGGIPFNKAYGMSAFEYHGTDPRFNKVFNNGMSNHSTITMKKILETYKGFEGLTSLVDVGGGIGATLKMIVSKYPNLKGINFDLPHVIEDAPSHPGIEHVGGDMFVSVPKGDAIFMKWICHDWSDEHCVKFLKNCYESLPEDGKVILAECILPETPDSSLSTKQVVHVDCIMLAHNPGGKERTEKEFEALAKASGFKGIKVVCDAFGVNLIELLKKL |  |  | kcat [1]: 0.327 s⁻¹; kcat/Km [1]: 482 M⁻¹ s⁻¹
AtCOMT (Arabidopsis thaliana; N129V) (protein) MGSTAETQLTPVQVTDDEAALFAMQLASASVLPMALKSALELDLLEIMAKNGSPMSPTEIASKLPTKNPEAPVMLDRILRLLTSYSVLTCSNRKLSGDGVERIYGLGPVCKYLTKNEDGVSIAALCLMVQDKVLMESWYHLKDAILDGGIPFNKAYGMSAFEYHGTDPRFNKVFNNGMSNHSTITMKKILETYKGFEGLTSLVDVGGGIGATLKMIVSKYPNLKGINFDLPHVIEDAPSHPGIEHVGGDMFVSVPKGDAIFMKWICHDWSDEHCVKFLKNCYESLPEDGKVILAECILPETPDSSLSTKQVVHVDCIMLAHNPGGKERTEKEFEALAKASGFKGIKVVCDAFGVNLIELLKKL | 0.458 | 828 | 
AtCOMT (Arabidopsis thaliana; H313A) (protein) MGSTAETQLTPVQVTDDEAALFAMQLASASVLPMALKSALELDLLEIMAKNGSPMSPTEIASKLPTKNPEAPVMLDRILRLLTSYSVLTCSNRKLSGDGVERIYGLGPVCKYLTKNEDGVSIAALCLMNQDKVLMESWYHLKDAILDGGIPFNKAYGMSAFEYHGTDPRFNKVFNNGMSNHSTITMKKILETYKGFEGLTSLVDVGGGIGATLKMIVSKYPNLKGINFDLPHVIEDAPSHPGIEHVGGDMFVSVPKGDAIFMKWICHDWSDEHCVKFLKNCYESLPEDGKVILAECILPETPDSSLSTKQVVAVDCIMLAHNPGGKERTEKEFEALAKASGFKGIKVVCDAFGVNLIELLKKL | 0.4 | 606 | 
AtCOMT (Arabidopsis thaliana; F174L) (protein) MGSTAETQLTPVQVTDDEAALFAMQLASASVLPMALKSALELDLLEIMAKNGSPMSPTEIASKLPTKNPEAPVMLDRILRLLTSYSVLTCSNRKLSGDGVERIYGLGPVCKYLTKNEDGVSIAALCLMNQDKVLMESWYHLKDAILDGGIPFNKAYGMSAFEYHGTDPRFNKVLNNGMSNHSTITMKKILETYKGFEGLTSLVDVGGGIGATLKMIVSKYPNLKGINFDLPHVIEDAPSHPGIEHVGGDMFVSVPKGDAIFMKWICHDWSDEHCVKFLKNCYESLPEDGKVILAECILPETPDSSLSTKQVVHVDCIMLAHNPGGKERTEKEFEALAKASGFKGIKVVCDAFGVNLIELLKKL | 0.369 | 1120 | 
AtCOMT (Arabidopsis thaliana; H313A/N129V) (protein) MGSTAETQLTPVQVTDDEAALFAMQLASASVLPMALKSALELDLLEIMAKNGSPMSPTEIASKLPTKNPEAPVMLDRILRLLTSYSVLTCSNRKLSGDGVERIYGLGPVCKYLTKNEDGVSIAALCLMVQDKVLMESWYHLKDAILDGGIPFNKAYGMSAFEYHGTDPRFNKVFNNGMSNHSTITMKKILETYKGFEGLTSLVDVGGGIGATLKMIVSKYPNLKGINFDLPHVIEDAPSHPGIEHVGGDMFVSVPKGDAIFMKWICHDWSDEHCVKFLKNCYESLPEDGKVILAECILPETPDSSLSTKQVVAVDCIMLAHNPGGKERTEKEFEALAKASGFKGIKVVCDAFGVNLIELLKKL | 0.498 | 1390 | 
AtCOMT (Arabidopsis thaliana; F174L/H313A/N129V) (protein) MGSTAETQLTPVQVTDDEAALFAMQLASASVLPMALKSALELDLLEIMAKNGSPMSPTEIASKLPTKNPEAPVMLDRILRLLTSYSVLTCSNRKLSGDGVERIYGLGPVCKYLTKNEDGVSIAALCLMVQDKVLMESWYHLKDAILDGGIPFNKAYGMSAFEYHGTDPRFNKVLNNGMSNHSTITMKKILETYKGFEGLTSLVDVGGGIGATLKMIVSKYPNLKGINFDLPHVIEDAPSHPGIEHVGGDMFVSVPKGDAIFMKWICHDWSDEHCVKFLKNCYESLPEDGKVILAECILPETPDSSLSTKQVVAVDCIMLAHNPGGKERTEKEFEALAKASGFKGIKVVCDAFGVNLIELLKKL |  |  | kcat [2]: 0.475 s⁻¹; kcat/Km [2]: 2020 M⁻¹ s⁻¹

— PMC11968058
